Values joined by “and” are separate entries in the source; they are usually repeats but may differ in a detail not shown here. Equal values may be shown once.

The target in one experiment is β1 integrin (human, UniProt P05556 21-798). As to the kind of experiment: cell-based or functional assay.
In another experiment the target is T1, β3 integrin (human, UniProt P05106 27-788).
T1 construct: also called β3 integrins
The experiment can be described thus: His-tag pull-down on nickel beads from NHDF lysate, Western blot for β3 integrin. (A western blot detects proteins with antibodies after separation by electrophoresis.)

β1 integrin, sequence (P05556 21-798): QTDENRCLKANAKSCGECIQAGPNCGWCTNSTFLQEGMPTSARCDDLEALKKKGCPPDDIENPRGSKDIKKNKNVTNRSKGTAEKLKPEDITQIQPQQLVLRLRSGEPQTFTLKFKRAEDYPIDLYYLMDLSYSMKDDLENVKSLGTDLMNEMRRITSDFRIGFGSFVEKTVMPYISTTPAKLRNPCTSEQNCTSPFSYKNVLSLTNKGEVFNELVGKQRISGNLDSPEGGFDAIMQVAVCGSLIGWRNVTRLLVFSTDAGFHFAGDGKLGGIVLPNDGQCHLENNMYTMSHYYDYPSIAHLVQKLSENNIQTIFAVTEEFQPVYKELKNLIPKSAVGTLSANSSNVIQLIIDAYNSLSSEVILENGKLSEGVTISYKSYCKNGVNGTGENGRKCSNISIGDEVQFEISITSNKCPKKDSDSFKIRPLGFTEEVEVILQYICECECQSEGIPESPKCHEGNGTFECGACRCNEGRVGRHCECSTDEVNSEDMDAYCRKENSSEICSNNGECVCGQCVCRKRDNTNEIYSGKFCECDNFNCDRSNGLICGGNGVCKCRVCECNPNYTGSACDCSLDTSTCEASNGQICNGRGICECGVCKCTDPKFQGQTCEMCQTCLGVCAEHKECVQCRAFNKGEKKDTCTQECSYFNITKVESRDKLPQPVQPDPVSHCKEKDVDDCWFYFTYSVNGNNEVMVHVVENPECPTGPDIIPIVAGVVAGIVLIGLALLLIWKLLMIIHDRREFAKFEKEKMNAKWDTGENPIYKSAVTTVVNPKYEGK
T1 sequence (P05106 27-788 limits assumed): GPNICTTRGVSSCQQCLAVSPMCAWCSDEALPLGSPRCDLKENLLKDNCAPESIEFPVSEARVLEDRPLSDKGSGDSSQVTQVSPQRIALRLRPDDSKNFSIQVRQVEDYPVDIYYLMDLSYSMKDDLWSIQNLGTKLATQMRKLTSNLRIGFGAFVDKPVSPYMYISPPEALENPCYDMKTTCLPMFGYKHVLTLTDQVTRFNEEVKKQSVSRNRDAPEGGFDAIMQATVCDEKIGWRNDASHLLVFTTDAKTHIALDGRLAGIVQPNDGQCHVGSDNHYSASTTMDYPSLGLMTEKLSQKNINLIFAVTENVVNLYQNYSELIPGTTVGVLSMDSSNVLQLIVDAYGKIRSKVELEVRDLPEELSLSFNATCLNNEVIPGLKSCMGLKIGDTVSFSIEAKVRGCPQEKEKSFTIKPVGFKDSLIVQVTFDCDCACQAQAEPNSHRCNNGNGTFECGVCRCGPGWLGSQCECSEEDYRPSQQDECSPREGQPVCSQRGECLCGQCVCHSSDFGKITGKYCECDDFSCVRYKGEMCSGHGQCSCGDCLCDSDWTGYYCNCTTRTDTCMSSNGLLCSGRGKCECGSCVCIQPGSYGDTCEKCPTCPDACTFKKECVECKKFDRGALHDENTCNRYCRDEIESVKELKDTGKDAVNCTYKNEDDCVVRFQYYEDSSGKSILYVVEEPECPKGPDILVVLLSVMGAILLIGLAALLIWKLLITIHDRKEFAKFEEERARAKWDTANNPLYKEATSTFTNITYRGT

B1: HCMV AD169 glycoprotein B disintegrin-like domain (amino acids 57-146), His-tagged, expressed in E. coli (other)
chain: VTSSEAVSHRANETIYNTTLKYGDVVGVNTTKYPYRVCSMAQGTDLIRFERNIICTSMKPINEDLDEGIMVVYKRNIVAHTFKVRVYQKV
notes: range 57-146; also called gBDLD; gBDLD fragment; not shown: N-terminal His-Tag with thrombin cleavage site from vector pET-28a
Consider B1, for which the “IC50 for HCMV neutralization (HCMV-GFP infectivity of NHDFs, flow cytometry)” value with β1 integrin was 20.5 µg/mL and 1.96 µM. Further, in the experiment with β3 integrin, the binding result is on record as “no binding (tested: 20 µg gBDLD in 350 µL cell lysate)”.

The record behind these values is patent US20150104466A1 (WISCONSIN ALUMNI RESEARCH FOUNDATION, published 2015).
